Data as given in patent US10781452B2, “FLT3 receptor antagonists for the treatment or the prevention of pain disorders” (INSTITUT NATIONAL DE LA SANTE ET DE LA RECHERCHE MEDICALE …, priority 2010, dated 2020).

Key:
[1] = target: T1, ECD of mouse recombinant FLT3 (Fc-ECDmFLT3) (Mus musculus, UniProt Q00342); test: ELISA binding to ECD of mouse recombinant FLT3; details: antibody at 10 μg/mL
T1 construct: ECD of human or mouse recombinant FLT3 produced in NSO cell line; host or cells: NSO cell line
T1 sequence (Q00342 28-544 limits assumed): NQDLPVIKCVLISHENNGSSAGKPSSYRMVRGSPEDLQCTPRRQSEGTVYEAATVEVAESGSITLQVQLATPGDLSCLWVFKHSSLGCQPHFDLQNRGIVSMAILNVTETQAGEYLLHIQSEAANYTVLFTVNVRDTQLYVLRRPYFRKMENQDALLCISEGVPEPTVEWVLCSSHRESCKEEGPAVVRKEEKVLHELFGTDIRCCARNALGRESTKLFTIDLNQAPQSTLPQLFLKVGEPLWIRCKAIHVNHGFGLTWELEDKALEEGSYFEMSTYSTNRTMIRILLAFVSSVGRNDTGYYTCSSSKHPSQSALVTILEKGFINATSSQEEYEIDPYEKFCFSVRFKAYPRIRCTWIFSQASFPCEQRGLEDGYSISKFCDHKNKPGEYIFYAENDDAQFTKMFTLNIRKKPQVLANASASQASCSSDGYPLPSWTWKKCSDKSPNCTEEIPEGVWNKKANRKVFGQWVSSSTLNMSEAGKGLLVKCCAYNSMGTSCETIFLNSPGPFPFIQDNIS
Method: (§1) The A3 antibody directed against FLT3 was produced by a phage display strategy and the antibody selection was performed by using ECD of human or mouse recombinant FLT3 produced in NSO cell line. To identify antibodies cross-reacting with both human and mouse FLT3, phages were selected by three rounds of panning, according to methods well known in the art (Philibert, P. et al. A focused antibody library for selecting scFvs expressed at high levels in the cytoplasm. BMC Biotechnol. 7, 81; 2007), first against the ECD of human FLT3, then against the ECD of mouse FLT3 and then against the ECD of human FLT3. A batch of one selected antibody named A3 was tested for its ability to bind to the ECD of human or mouse recombinant FLT3 using an ELISA technique.

Fc fragment alone = test: ELISA binding to Fc fragment alone; details: antibody at 10 μg/mL
Method: as §1

B1: A3 antibody: human monoclonal antibody against FLT3; VH SEQ ID NO:1, VL SEQ ID NO:2 (antibody, V domains shown)
VH: EVQLVESGGSLVKPGGSLRLSCAASGFTFSNSYMNWVRQAPGKGLEWISDISGSSRDIDYADFVKGRFTISRDNATNSLYLQMNSLRAEDTAVYYCVRSGNSGMDVWGRGTLVTVSS
VL: QSVLTQPASVSGSPGQSITISCAGTSSDVGGGYYVSWYQQHPGKAPKLMIYYDSYRPSGVSNRFSGSKSGNTASLTISGLQAEDEADYYCSSYTNNSTRVFGGGTKLEIK
modifications: Synthetic VH domain of A3; Synthetic VL region of A3
ELISA immunoreactivity against Fc-ECDmFLT3 [1]: generates immunoreactivity | ELISA immunoreactivity against Fc fragment alone (Fc fragment alone): not against the Fc fragment alone
